According to the supplement of paper PMC7877785:
± gives the uncertainty stated by the source.

Experiment: self-splicing fitness, log relative to wild type (ln ratio); higher = more splicing; Tetrahymena group I intron in knt gene, E. coli kanamycin selection, DiMSum; sequences stand for … in CUCUCU…GGAGGGAAAAGUUAUCAGGCAUGCACCUGGUAGCUAGUCUUUAAACCAAUAGAUUGCAUCGGUUUAAAAGGCAAGACCGUCAAAUUGCGGGAAAGGGGUCAACAGCCGUUCAGUACCAAGUCUCAGGGGAAACUUUGAGAUGGCCUUGCAAAGGGUAUGGUAAUAAGCUGACGGACAUGGUCCUAACCACGCAGCCAAGUCCUAAGUCAACAGAUCUUCUGUUGAUAUGGAUGCAGUUCACAGACUAAAUGUCGGUCGGGGAAGAUGUAUUCUUCUCAUAAGAUAUAGUCGGACCUCUCCUUAAUGGGAGCUAGCGGAUGAAGUGAUGCAACACUGGAGCCGCUGGGAACUAAUUUGUAUGCGAAAGUAUAUUGAUUAGUUUUGGAGUACUCGUGGUCG
How it was run: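 Colonies from six replicate transformations of E. coli BL21(DE3) were pooled and amplicon-sequenced on an Illumina HiSeq 2500. The library placed an intron with all eight P1ex-region nucleotides randomised inside the knt kanamycin-resistance gene on pET-22b(+), and cells grew overnight at 37°C or 30°C on LB agar with or without 25 μg/mL kanamycin (plus 100 μg/mL carbenicillin, 50 μM IPTG, 0.2% rhamnose). Fitness is the DiMSum error-weighted combination of wild-type-normalised replicate fold changes, kanamycin versus none.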

Row | Sequence | self-splicing fitness (ln) (30 °C) | self-splicing fitness (ln) (37 °C)
1 | AGGUAGCAAUAUUACGUCUA | -0.666 ± 0.015 | -0.259 ± 0.033
2 | AGUAAGCAAUAUUACGAACC | -1.74 ± 0.21 | 1.04 ± 0.23
3 | AGUAAGCAAUAUUACGAAGA | -2.88 ± 0.28 | -2.82 ± 0.35
4 | AGUAAGCAAUAUUACGACCG | -1.03 ± 0.17 | -0.428 ± 0.2
5 | AGUAAGCAAUAUUACGACGG | -3.42 ± 0.27 | -1.94 ± 0.2
6 | AGUAAGCAAUAUUACGAGCU | -2.23 ± 0.14 | -1.98 ± 0.13
7 | AGUAAGCAAUAUUACGCAGC | -3.52 ± 0.32 | -1.8 ± 0.3
8 | AGUAAGCAAUAUUACGCCAA | -3.35 ± 0.29 | -2.6 ± 0.24
9 | AGUAAGCAAUAUUACGCCAU | -2.81 ± 0.2 | -1.93 ± 0.22
10 | AGUAAGCAAUAUUACGCCCA | -1.19 ± 0.37 | 
11 | AGUAAGCAAUAUUACGCCUU | -1.74 ± 0.12 | -0.241 ± 0.14
12 | AGUAAGCAAUAUUACGCGGC |  | -3.37 ± 0.42
13 | AGUAAGCAAUAUUACGCUAU | -4.08 ± 0.32 | -1.41 ± 0.13
14 | AGUAAGCAAUAUUACGCUGA | -1.98 ± 0.33 | -2.29 ± 0.31
15 | AGUAAGCAAUAUUACGGACU | -1.57 ± 0.15 | 0.25 ± 0.17
16 | AGUAAGCAAUAUUACGGAGG | -2.9 ± 0.28 | -2.29 ± 0.26
17 | AGUAAGCAAUAUUACGGCGU | -0.683 ± 0.073 | 0.246 ± 0.095
18 | AGUAAGCAAUAUUACGGUAC | -2.95 ± 0.24 | -2.27 ± 0.31
19 | AGUAAGCAAUAUUACGGUGU | -2.92 ± 0.14 | -2.44 ± 0.16
20 | AGUAAGCAAUAUUACGGUUA | -0.833 ± 0.11 | -0.477 ± 0.092
21 | AGUAAGCAAUAUUACGGUUC | -2.9 ± 0.19 | -1.55 ± 0.44
22 | AGUAAGCAAUAUUACGGUUG | -3.09 ± 0.23 | -2.51 ± 0.25
23 | AGUAAGCAAUAUUACGUAAA | -3.2 ± 0.34 | -1.75 ± 0.21
24 | AGUAAGCAAUAUUACGUAAC | -2.48 ± 0.23 | 

Row | Sequence | self-splicing fitness (ln) (30 °C) | self-splicing fitness (ln) (37 °C)
25 | AGUAAGCAAUAUUACGUACA | -0.932 ± 0.1 | 0.0596 ± 0.13
26 | AGUAAGCAAUAUUACGUACU | -2.29 ± 0.12 | -1.76 ± 0.18
27 | AGUAAGCAAUAUUACGUGAG | -3.88 ± 0.15 | -1.07 ± 0.11
28 | AGUCAGCAAUAUUACGAAGU | -1.48 ± 0.084 | -0.0211 ± 0.096
29 | AGUCAGCAAUAUUACGACAG | -0.781 ± 0.12 | -0.399 ± 0.14
30 | AGUCAGCAAUAUUACGACCC | -0.401 ± 0.19 | -0.72 ± 0.29
31 | AGUCAGCAAUAUUACGAGGU | -3.4 ± 0.26 | -2.62 ± 0.24
32 | AGUCAGCAAUAUUACGAUAU | -0.289 ± 0.096 | 0.475 ± 0.11
33 | AGUCAGCAAUAUUACGAUUA | 0.011 ± 0.11 | -0.381 ± 0.15
34 | AGUCAGCAAUAUUACGCAUU | -0.401 ± 0.069 | -0.421 ± 0.085
35 | AGUCAGCAAUAUUACGCCUA | -0.754 ± 0.12 | 0.18 ± 0.15
36 | AGUCAGCAAUAUUACGCGGU | -2.25 ± 0.15 | -1.45 ± 0.11
37 | AGUCAGCAAUAUUACGCUCC | -0.39 ± 0.17 | -0.919 ± 0.16
38 | AGUCAGCAAUAUUACGGCAU | 0.126 ± 0.066 | -0.106 ± 0.074
39 | AGUCAGCAAUAUUACGGCGU | 0.0847 ± 0.073 | 0.74 ± 0.096
40 | AGUCAGCAAUAUUACGGUCC | -0.805 ± 0.096 | 0.201 ± 0.13
41 | AGUCAGCAAUAUUACGUACC | -0.711 ± 0.15 | 0.605 ± 0.21
42 | AGUCAGCAAUAUUACGUACU | -1.92 ± 0.13 | -0.881 ± 0.13
43 | AGUCAGCAAUAUUACGUGCC | -1.02 ± 0.077 | 0.0632 ± 0.095
44 | AGUCAGCAAUAUUACGUGGA | -2.73 ± 0.19 | -2.41 ± 0.15
45 | AGUGAGCAAUAUUACGAACC | -0.739 ± 0.16 | -0.869 ± 0.24
46 | AGUGAGCAAUAUUACGACUC | -3.04 ± 0.37 | 
47 | AGUGAGCAAUAUUACGAGAC |  | -2.17 ± 0.24
48 | AGUGAGCAAUAUUACGAUAG | -2.34 ± 0.17 | -2.18 ± 0.34

Row | Sequence | self-splicing fitness (ln) (30 °C) | self-splicing fitness (ln) (37 °C)
49 | AGUGAGCAAUAUUACGCUAC | -2.96 ± 0.16 | -2.3 ± 0.23
50 | AGUGAGCAAUAUUACGGAGC | -1.89 ± 0.18 | -3.36 ± 0.33
51 | AGUGAGCAAUAUUACGGAGG | -3.77 ± 0.28 | -2.67 ± 0.27
52 | AGUGAGCAAUAUUACGGCCG | -3.46 ± 0.29 | -1.59 ± 0.24
53 | AGUGAGCAAUAUUACGGCUC | -4.11 ± 0.26 | -2.03 ± 0.2
54 | AGUGAGCAAUAUUACGGGGU | -4.06 ± 0.25 | -2.67 ± 0.21
55 | AGUGAGCAAUAUUACGGGUU | -2.39 ± 0.26 | -2.35 ± 0.33
56 | AGUGAGCAAUAUUACGGUCG | -3.55 ± 0.24 | -1.97 ± 0.18
57 | AGUGAGCAAUAUUACGGUGA | -3.03 ± 0.31 | -2.96 ± 0.3
58 | AGUGAGCAAUAUUACGGUGG | -3.06 ± 0.19 | -2.69 ± 0.3
59 | AGUGAGCAAUAUUACGGUGU | -4.01 ± 0.29 | -3.73 ± 0.34
60 | AGUGAGCAAUAUUACGUAAA | -3.58 ± 0.22 | -1.3 ± 0.18
61 | AGUUAGCAAUAUUACGAAUU | -1.62 ± 0.11 | -0.649 ± 0.12
62 | AGUUAGCAAUAUUACGACAG | -0.556 ± 0.098 | -0.495 ± 0.12
63 | AGUUAGCAAUAUUACGACCU | -0.34 ± 0.09 | -0.469 ± 0.097
64 | AGUUAGCAAUAUUACGACGC | -0.0216 ± 0.11 | 0.486 ± 0.13
65 | AGUUAGCAAUAUUACGAUGU | -1.48 ± 0.096 | -0.307 ± 0.11
66 | AGUUAGCAAUAUUACGAUUU | 0.0118 ± 0.094 | 0.175 ± 0.11
67 | AGUUAGCAAUAUUACGCCUG | -1.74 ± 0.21 | -1.46 ± 0.25
68 | AGUUAGCAAUAUUACGCGGG | -4.1 ± 0.33 | -0.533 ± 0.15
69 | AGUUAGCAAUAUUACGCUCG | -0.0767 ± 0.16 | -0.636 ± 0.19
70 | AGUUAGCAAUAUUACGGCAA | -0.82 ± 0.08 | 0.163 ± 0.11
71 | AGUUAGCAAUAUUACGGCUA | -0.379 ± 0.11 | -0.127 ± 0.11
72 | AGUUAGCAAUAUUACGGGCU | -3.01 ± 0.28 | -1.79 ± 0.24

Row | Sequence | self-splicing fitness (ln) (30 °C) | self-splicing fitness (ln) (37 °C)
73 | AGUUAGCAAUAUUACGGUAC | -1.49 ± 0.2 | -2.76 ± 0.28
74 | AGUUAGCAAUAUUACGGUCU | -0.221 ± 0.081 | -0.0741 ± 0.087
75 | AGUUAGCAAUAUUACGGUGC | -3.15 ± 0.17 | -2.44 ± 0.2
76 | AGUUAGCAAUAUUACGUAUG | -1.57 ± 0.15 | -2.67 ± 0.29
77 | AGUUAGCAAUAUUACGUCAA | -3.02 ± 0.26 | -0.718 ± 0.13
78 | AGUUAGCAAUAUUACGUGCU | -2.35 ± 0.14 | -1.78 ± 0.21
79 | AUAAAGCAAUAUUACGAAAG | -2.01 ± 0.12 | -1.25 ± 0.14
80 | AUAAAGCAAUAUUACGACCG | -0.25 ± 0.13 | -0.14 ± 0.18
81 | AUAAAGCAAUAUUACGAGCU | -0.379 ± 0.06 | 0.246 ± 0.086
82 | AUAAAGCAAUAUUACGAGUC | -3.52 ± 0.13 | -2.07 ± 0.14
83 | AUAAAGCAAUAUUACGCGGG | -2.55 ± 0.13 | -1.4 ± 0.16
84 | AUAAAGCAAUAUUACGCGGU | -1.8 ± 0.12 | -0.6 ± 0.11
85 | AUAAAGCAAUAUUACGCUAG | -0.761 ± 0.1 | -0.165 ± 0.12
86 | AUAAAGCAAUAUUACGGAGU | -0.717 ± 0.072 | -0.598 ± 0.088
87 | AUAAAGCAAUAUUACGGAUU | -1.15 ± 0.077 | 0.0214 ± 0.091
88 | AUAAAGCAAUAUUACGGCCA | 0.232 ± 0.11 | 0.15 ± 0.13
89 | AUAAAGCAAUAUUACGGCUA | 0.756 ± 0.14 | -0.15 ± 0.14
90 | AUAAAGCAAUAUUACGGCUC | 0.203 ± 0.11 | 1.04 ± 0.15
91 | AUAAAGCAAUAUUACGGUAU | -0.836 ± 0.068 | -0.0795 ± 0.1
92 | AUAAAGCAAUAUUACGGUUG | -1.68 ± 0.1 | -1.36 ± 0.15
93 | AUAAAGCAAUAUUACGUCUG | -0.676 ± 0.079 | -0.47 ± 0.11
94 | AUAAAGCAAUAUUACGUGAA | -1.39 ± 0.094 | -0.724 ± 0.12
95 | AUAAAGCAAUAUUACGUGCG | -0.493 ± 0.083 | 0.137 ± 0.1
96 | AUACAGCAAUAUUACGAAAG | -2.62 ± 0.19 | -0.9 ± 0.17
